Assay results published in patent publication US20240058465A1 (SUTRO BIOPHARMA, published 2024).

How the values were obtained:
[1] = biological target: T1, human ROR1 (hROR1) expressed on cells (human, UniProt Q01973 30-937); test: cell-based or functional assay
[2] = biological target: T1, human ROR1 (hROR1) expressed on cells; test: flow cytometry, HCT116-hROR1 cells
[3] = biological target: T2, human ROR1-ECD (human, UniProt Q01973 30-406); test: SPR (Biacore), antibody captured by anti-Fc, human ROR1-ECD analyte
T2 construct: Bought protein; also called hROR1; ROR1-extracellular domain
Description: Anti-Fc polyclonal antibodies were immobilized onto a CMS chip (GE Life Sciences) using amine coupling chemistry (from Amine Coupling Kit, GE Life Sciences). The immobilization steps were carried out at a flow rate of 25 μL/min in 1×HBS-EP+buffer (GE Life Sciences; 10× Stock diluted before use). The sensor surfaces were activated for 7 min with a mixture of NHS (0.05 M) and EDC (0.2 M). The Anti-Fc antibodies were injected over all 4 flow cells at a concentration of 25 ug/ml in 10 mM sodium acetate, pH 4.5, for 7 min. Ethanolamine (1 M, pH 8.5) was injected for 7 min to block any remaining activated groups.
Off-rate and kinetic binding experiments were performed at 25° C. using 1×HBS-EP+buffer. Test and control antibodies were injected over the anti-Fc surface at concentrations of 5-10 μg/mL for 12 seconds at a flow rate of 10 μL/min on flow cells 2, 3 and 4, followed by a buffer wash for 30 seconds at the same flow rate. […] After capturing ligand (antibody) on the anti-Fc surface, the analyte (hROR1, Fz or Kr domains, Acro Biosystems, Delaware) was bound for 180 seconds, followed by a 600 second dissociation phase at a flow rate of 50 μL/min. Between each ligand capture and analyte binding cycle, regeneration was carried out using 2 injections of 10 mM Glycine pH 2.0 for 30 seconds at 30 μL/min, followed by a 30 second buffer wash step.

Binder | Bmax (MFI) [2] [MFI] | Kd [2] [nM] | Kd [3] [nM] | koff [3] [s⁻¹] | kon [3] [M⁻¹ s⁻¹] | Mino Nb-PBD, drug-conjugated 2° antibody Cell Killing IC50 [1] [nM] | Mino Nb-PBD, drug-conjugated 2° antibody Cell Killing Span [1] [%]
SRP2188-A02 (antibody, IgG1, V domains shown, IgG1 with trastuzumab LC; HIS- and FLAG-tagged; cell-free expressed) VH: EVQLVESGGGLVQPGGSLRLSCAASGFNIKSYDIHWVRQAPGKGLEWVGWINPEDGDTYYADSVKGRFTISADTSKNTAYLQMNSLRAEDTAVYYCARDFGVFDYWGQGTLVTVSS VL: not shown | 9390 | 0.03 |  |  |  | 0.0007 | 65
SRP2188-E10 (antibody, IgG1, V domains shown, IgG1 with trastuzumab LC; HIS- and FLAG-tagged; cell-free expressed) VH: EVQLVESGGGLVQPGGSLRLSCAASGFNIGDFDIHWVRQAPGKGLEWVGGIDPRDGATDYADSVKGRFTISADTSKNTAYLQMNSLRAEDTAVYYCARDYGVFDYWGQGTLVTVSS VL: not shown | 9120 | 0.04 |  |  |  | 0.00099 | 73
SRP2188-D10 (antibody, IgG1, V domains shown, IgG1 with trastuzumab LC; HIS- and FLAG-tagged; cell-free expressed) VH: EVQLVESGGGLVQPGGSLRLSCAASGFNISDYDIHWVRQAPGKGLEWVGRIDPRDGATDYADSVKGRFTISADTSKNTAYLQMNSLRAEDTAVYYCARDYGVFDYWGQGTLVTVSS VL: not shown | 9070 | 0.05 |  |  |  | 0.001 | 65
SRP2188-E02 (antibody, IgG1, V domains shown, IgG1 with trastuzumab LC; HIS- and FLAG-tagged; cell-free expressed) VH: EVQLVESGGGLVQPGGSLRLSCAASGFNIPDYEIHWVRQAPGKGLEWVGGIEPHDGSTDYADSVKGRFTISADTSKNTAYLQMNSLRAEDTAVYYCARDYGVYDYWGQGTLVTVSS VL: not shown | 10500 | 0.07 |  |  |  | 0.00075 | 76
SRP2188-D07 (antibody, IgG1, V domains shown, IgG1 with trastuzumab LC; HIS- and FLAG-tagged; cell-free expressed) VH: EVQLVESGGGLVQPGGSLRLSCAASGFNISDFDIHWVRQAPGKGLEWVVGIDPTDGATDYADSVKGRFTISADTSKNTAYLQMNSLRAEDTAVYYCARDYGVFDYWGQGTLVTVSS VL: not shown | 8990 | 0.04 |  |  |  | 0.0017 | 70
SRP2188-B04 (antibody, IgG1, V domains shown, IgG1 with trastuzumab LC; HIS- and FLAG-tagged; cell-free expressed) VH: EVQLVESGGGLVQPGGSLRLSCAASGFNITWYDIHWVRQAPGKGLEWVGWINPDDGDTYYADSVKGRFTISADTSKNTAYLQMNSLRAEDTAVYYCARDYGVFDYWGQGTLVTVSS VL: not shown | 9660 | 0.05 |  |  |  | 0.0012 | 73
SRP2188-F10 (antibody, IgG1, V domains shown, IgG1 with trastuzumab LC; HIS- and FLAG-tagged; cell-free expressed) VH: EVQLVESGGGLVQPGGSLRLSCAASGFNISVFDIHWVRQAPGKGLEWVGGIDPNDGATDHADSVKGRFTISADTSKNTAYLQMNSLRAEDTAVYYCARDYGVFDYWGQGTLVTVSS VL: not shown | 8480 | 0.03 | 0.399 | 0.000399 | 1e+06 |  | 
SRP2188-C03 (antibody, IgG1, V domains shown, IgG1 with trastuzumab LC; HIS- and FLAG-tagged; cell-free expressed) VH: EVQLVESGGGLVQPGGSLRLSCAASGFNINSYDIHWVRQAPGKGLEWVGWINPDDGDTYYADSVKGRFTISADTSKNTAYLQMNSLRAEDTAVYYCARDYGVFDYWGQGTLVTVSS VL: not shown | 9600 | 0.03 |  |  |  | 0.0011 | 71
SRP2188-A08 (antibody, IgG1, V domains shown, IgG1 with trastuzumab LC; HIS- and FLAG-tagged; cell-free expressed) VH: EVQLVESGGGLVQPGGSLRLSCAASGFNIHNFDIHWVRQAPGKGLEWVGWINPFDGDTYYADSVKGRFTISADTSKNTAYLRMNSLRAEDTAAYYCARDYGVFDYWGQGTLVTVSS VL: not shown | 8130 | 0.18 |  |  |  | 0.02 | 75
SRP2188-D02 (antibody, IgG1, V domains shown, IgG1 with trastuzumab LC; HIS- and FLAG-tagged; cell-free expressed) VH: EVQLVESGGGLVQPGGSLRLSCAASGFNISDYDIHWVRQAPGKGLEWVGGIDPEDGATDYADSVKGRFTISADTSKNTAYLQMNSLRAEDTAVYYCARDYGVFDYWGQGTLVTVSS VL: not shown | 10000 | 0.04 |  |  |  | 0.0014 | 72
SRP2188-C02 (antibody, IgG1, V domains shown, IgG1 with trastuzumab LC; HIS- and FLAG-tagged; cell-free expressed) VH: EVQLVESGGGLVQPGGSLRLSCAASGFNIERYDIHWVRQAPGKGLEWVGWINPDDGDTYYADSVKGRFTISADTSKNTAYLQTKSLRAEDTAVYYCARDYGVFDYWGQGTLVTVSS VL: not shown | 9920 | 0.13 |  |  |  | 0.01 | 73

The remaining binders from weak to strong by Kd [2], led by results:

Bmax (MFI) [2] [MFI] | Kd [2] [nM] | Kd [3] [nM] | koff [3] [s⁻¹] | kon [3] [M⁻¹ s⁻¹] | Binder | Mino Nb-PBD, drug-conjugated 2° antibody Cell Killing IC50 [1] [nM] | Mino Nb-PBD, drug-conjugated 2° antibody Cell Killing Span [1] [%]
9210 | 0.09 |  |  |  | SRP2188-B08 (antibody, IgG1, V domains shown, IgG1 with trastuzumab LC; HIS- and FLAG-tagged; cell-free expressed) VH: EVQLVESGGGLVQPGGSLRLSCAASGFNIDSYDIHWVRQAPGKGLEWVGWINPDDGDTFYADSVKGRFTISADTSKNTAYLQMDSLRAEDTAVYYCARDYGVFDYWGQGTLVTVSS VL: not shown | 0.0062 | 71
9160 | 0.04 |  |  |  | SRP2188-C07 (antibody, IgG1, V domains shown, IgG1 with trastuzumab LC; HIS- and FLAG-tagged; cell-free expressed) VH: EVQLVESGGGLVQPGGSLRLSCAASGFNIVRYDIHWVRQAPGKGLEWVGWINPDDGDTYYADSVKGRFTISADTSKNTAYLQMNSLRAEDTAVYYCARDYGVFDYWGQGTLVTVSS VL: not shown | 0.00085 | 71
10100 | 0.04 |  |  |  | SRP2188-F03 (antibody, IgG1, V domains shown, IgG1 with trastuzumab LC; HIS- and FLAG-tagged; cell-free expressed) VH: EVQLVESGGGLVQPGGSLRLSCAASGFNISDYDIHWVRQAPGKGLEWVSGIDPDDGSTDYADSVKGRFTISADTSKNTAYLQMNSLRAEDTAVYYCARDYGVFDYWGQGTLVTVSS VL: not shown | 0.0011 | 71
9620 | 0.04 | 0.587 | 0.00051 | 870000 | SRP2188-F05 (antibody, IgG1, V domains shown, IgG1 with trastuzumab LC; HIS- and FLAG-tagged; cell-free expressed) VH: EVQLVESGGGLVQPGGSLRLSCAASGFNISDYDIHWVRQAPGKGLEWVGGIDPRDGATDSADSVKGRFTISADTSKNTAYLQMNSLRAEDTAVYYCARDYGVFDYWGQGTLVTVSS VL: not shown |  | 
9470 | 0.04 |  |  |  | SRP2188-B01 (antibody, IgG1, V domains shown, IgG1 with trastuzumab LC; HIS- and FLAG-tagged; cell-free expressed) VH: EVQLVESGGGLVQPGGSLRLSCAASGFNINSHDIHWVRQAPGKGLEWVGWINPDDGDTYYADSVKGRFTISADTSKNTAYLQMNSLRAEDTAVYYCARDYGVLDYWGQGTLVTVSS VL: not shown | 0.00069 | 75
10000 | 0.03 |  |  |  | SRP2188-F04 (antibody, IgG1, V domains shown, IgG1 with trastuzumab LC; HIS- and FLAG-tagged; cell-free expressed) VH: EVQLVESGGSLVQPGGSLRLSCAASGFNISDFDIHWVRQAPGKGLEWVSGIDPDDGATDYADSVKGRFTISADTSKNTAYLQMNSLRAEDTAVYYCARDYGVFDYWGQGTLVTVSS VL: not shown | 0.00072 | 71
8760 | 0.02 |  |  |  | SRP2188-F09 (antibody, IgG1, V domains shown, IgG1 with trastuzumab LC; HIS- and FLAG-tagged; cell-free expressed) VH: EVQLVESGGDLVQPGGSLRLSCAASGFNIRDYDIHWVRQAPGKGLEWVSAIDPNDGSTDYADSVKGRFTISADTSKNTAYLQMNSLRAEDTAVYYCARDYGVFDYWGQGTLVTVSS VL: not shown | 0.0018 | 59
8990 | 0.02 | 0.406 | 0.000259 | 639000 | SRP2188-G04 (antibody, IgG1, V domains shown, IgG1 with trastuzumab LC; HIS- and FLAG-tagged; cell-free expressed) VH: EVQLVESGGGLVQPGGSLRLSCAASGFNIFDYDIHWVRQAPGKGLEWVGGIDPRDGSTDHADSVKGRFTISADTSKNTAYLQMNSLRAEDTAVYYCARDYGVYDYWGQGTLVTVSS VL: not shown |  | 
